{"source": "the DeepSol protein solubility set", "data": [{"assay": "soluble on expression in E. coli; label from the status in PepcDB or PDB records", "values": [{"sequence": "MSERSVSKQDQEKRWYTVLAPEEFDRAELGETLAEEPDQVYDRTIQAALSDVRDGGDNNIKLTFQIDDVGSDSASTQFVQAELTRDYQRSLVRRGSSKVAVTVTVLTTDDYRVRIQPVAYTTKQADQSQQHAIRRTMIDLVEEAGEERTFEALLNSIIEGRLSSAIYDEANTIYPLRRVEVEKATLEAHPEEVHEEEETAVDFSGELEHHHHHH", "soluble on expression in E. coli": "soluble"}, {"sequence": "MAHHHHHHMNTHVISVGSRWVHHEVTQALRQRRGVRVEVNEELQHCDFASRASSVLYCDAHSAEMQRDQASLVLRLQEARQRCGTQPVILMVRMDSDNEVSLERLSWLNLECGVAQQCGLILVWSLDDAVQYLASLAAYAVTSLEFTGAARPYVGDAPLPVLVDALTQTPQVVTRNDVVRIANRKTSVADALMSEASEWEGIAGLDARKRLVCSTSFAHHLCPRSSASTPLYRPPAAAVSLPLIKPQNLISRSQQESPQRGRQRPLASTRP", "soluble on expression in E. coli": "not soluble"}, {"sequence": "MRVGQHTLQFANPPVIVATASVVGPKEGEGPLGDTFDMVIDDSYFGEETWEKAERKMLEEAVKMVIAKAQLKPQDIDFLLAGDLLNQTISANYAARSLGIPFLGLYGACSTMYEGMALAAMLIDGGFAHHVVAACSSHYDTAERQYRFPTEQGIQRPPTAQWTVTGAGAVLMAPVGNGPRITHATIGRVLDVGIKDPNDMGSAMAPAAVDTIVRHFQDTGRGPIDYDLIITGDLGRVGHEIATKLLGEKKYDVSKNYSDCGILIYDHERQDTHAGGSGCACSAVVFAGHLMGKLNEGRYKRILGVGTGALLSTTATQQGESIPGIGHGVVIEGLEHHHHHH", "soluble on expression in E. coli": "not soluble"}, {"sequence": "MFHGKHPGGLSERGRALLLEGGKALGLDLKPHLEAFSRLYALLQEASGKVNLTALRGEEEVVVKHFLDSLTLLRLPLWQGPLRVLDLGTGAGFPGLPLKIVRPELELVLVDATRKKVAFVERAIEVLGLKGARALWGRAEVLAREAGHREAYARAVARAVAPLCVLSELLLPFLEVGGAAVAMKGPRVEEELAPLPPALERLGGRLGEVLALQLPLSGEARHLVVLEKAALTSLAYPRRPGVPERHPLC", "soluble on expression in E. coli": "soluble"}, {"sequence": "MAELSNCSKCGRLFVKLSTRDVCESCYQEEERQFERVYAFLRKRENRTATMAQVVEATGVEEKLIIKWIRAGRLQLVHFPNLGYPCDSCGAMIREGRLCAKCLGQLQADLRRAEGKKEKEARSRHATYYTQDHKER", "soluble on expression in E. coli": "not soluble"}, {"sequence": "MREKLFWILKKYGVSDHIAKAFLEIPREEFLTKSYPLSYVYEDIVLVSYDDGEEYSTSSQPSLMALFMEWVGLDKGMRVLEIGGGTGYNAAVMSRVVGEKGLVVSVEYSRKICEIAKRNVERLGIENVIFVCGDGYYGVPEFSPYDVIFVTVGVDEVPETWFTQLKEGGRVIVPINLKLSRRQPAFLFKKKDPYLVGNYKLETRFITAGGNLGNLLERNRKLLREFPFNREILLVRSHIFVELVDLLTRRLTEIDGTFYYAGPNGVVEFLDDRMRIYGDAPEIENLLTQWESCGYRSFEYLMLHVGYNAFSHISCSI", "soluble on expression in E. coli": "soluble"}, {"sequence": "AFYYLSNFERALAWLAERYDDVLDAGEHAFVGAFGALPRASRALLVRMLMRKGPMFRASKLAYDEIGCPLAAAAPLVALGWIDPEPPLSLDALFALATKPELRDAFPDAPASGAVRKADWLDALRARHDGERPWAQWLPSIDDRVLRVTAAVDALCSRLRLMFFGNLHQDWSEFVLADLGLLQYETVAFAPSSRAFQRRDDVDAYLRLHACRELLEVWPADAPLAPLVEAAAAVDCGNAWLAMRRAKLTFSIGQACERRADWDGALAAYASSAWPGSRQRRVRVLERCERFDTALALADEAARAPENEAEAQQIARMLPRLRRRVGLPAGRAARAREIPRDSLELAHPGVPYPVEYVARDHLSRADAPVFYVENALINSLFGLLCWEPVFAAVPGAFFHPFQRGPADLHAPDFRARRAAQFDACLAQLDGTQYRDTIRRHYARKRGVQSPFVFWGALDETLLEHALACLPAEHLRLWFERLLDDVRGNRSGLPDLVRFWPAERRYELIEVKGPGDRLQDNQIRWLDYCVRHRMPVRVIDVRWSGDAQASSQDEGAL", "soluble on expression in E. coli": "not soluble"}, {"sequence": "MQGKLNCEIEMEVQIFTHKNCVECNMLLEYLENKGLLGKVKIIDTELYPFLAFEKGVISTPSIFIDGKLVYAGIVDFEEFERILSGQKVTKQIDKASLVEKLMLGIVDSFAATAWLYINRDFDSFLAQKDFVMAVTGLSLLDEREGDEYYNYLRNVMVKEGDRYLEEWKPRMLRNISSNFIREIFWLYERKISKETLTQKYPVEVFAHWLMIRSGAVGRVGLRIYPLSDSTVMKRVLEAYNFMLENYDEIFNKVQKEQMELKTKNKEQVRYLQL", "soluble on expression in E. coli": "soluble"}, {"sequence": "MAPKKVLLALTSYNDVFYSDGAKTGVFVVEALHPFNTFRKEGFEVDFVSETGKFGWDEHSLAKDFLNGQDETDFKNKDSDFNKTLAKIKTPKEVNADDYQIFFASAGHGTLFDYPKAKDLQDIASEIYANGGVVAAVCHGPAIFDGLTDKKTGRPLIEGKSITGFTDVGETILGVDSILKAKNLATVEDVAKKYGAKYLAPVGPWDDYSITDGRLVTGVNPASAHSTAVRSIDALKN", "soluble on expression in E. coli": "soluble"}, {"sequence": "MTKASDAVKGIINSNNIYTLLLNTGLVNYTKLAREIKSQVDFLTGKKVKINTIVKALTNIEIKSKPKDILLILKQSILTLEYNYKEITTENRNKIPDDAILVIKESNGYSAIIKTTDGNSLVIAKILLPPGSCTTAGITLLITEFLEINGVSVRNIYRLSKEIWIIVDSESAGKAADALNRLLYKSNDRESSPVSLVD", "soluble on expression in E. coli": "not soluble"}, {"sequence": "MGSDKIHHHHHHMPGTAARPAPIRVTYAEVMQRIIGTEVEYGISSPSDPTANPILTSTQAVLAYAAAAGIQRAKRTRWDYEVESPLRDARGFDLSRASGPPPVVDADEVGAANMILTNGARLYVDHAHPEYSAPECTDPLDAVIWDKAGERVMEAAARHVASVPGAAKLQLYKNNVDGKGASYGSHENYLMSRQTPFSAVIAGLTPFLVSRQVVTGSGRVGIGPSGDEPGFQLSQRADYIEVEVGLETTLKRGIINTRDEPHADADKYRRLHVIIGDANLAETSTYLKLGATSLVLDLIEEGMDLSDLALARPVHAVHVISRDPSLRATVAMADGRELTALALQRIYLDRVAKLVDSRDPDPRAAHVVETWAEVLDLLERDPMECAEILDWPAKLRLLEGFRHRENLGWSAPRLHLVDLQYSDVRLDKGLYNRLVARGSMKRLVTEQQVLDAVDSPPTDTRAYFRGECLRRFGADIAAASWDSVIFDLGGDSLVRIPTLEPLRGSKAHVGALLDSVDSAVQLVEQLTAT", "soluble on expression in E. coli": "not soluble"}, {"sequence": "MGSDKIHHHHHHMIDLSLLPPPDVVESVDFEELYQETLGIFREFMKDQWTAALESDPVVKLMEVMAYREMLTRARVNAAAKASLLAFAKGNDLVNRAADYGVEKLVIRPADPDAVPPVEAVMEGDEALRYRTRLSLEALSVAGSSGAYEYHGLSASAELTNVSVDSPRFVEAELTPEVRAQLPAGAIVVVCDYDAGLANPLPGDVSLAILPSLSSTTPVAQLVAKVKAALSAEEVRPITDRPRVAAGVPTEFKVEAELQIEEGPDPDVVKATARAGLNAAIAEARRLQGQLPLSAIYAALHVTGIRSVTLKHPAAGVVCDKRHYPSCTSVTLTSKVVT", "soluble on expression in E. coli": "not soluble"}, {"sequence": "MERSWGMGHFPHMQKKTLDAFVRGLQIVMEAEGIKMKPLSVAAGMGESGVRDLIRNESSPKVANAYALARELGRTVDEIIQIGMTGDLNARPAHAPIAVAGCVGAGARVDLLDAYEKGDGMYHVARPPQLKPHGIVAVEVKGESMMPLYRPGSVLFYTRAAAEGVPVEALNTPCVCEDADGRAWLKVVKVGSQEGTFSLLSLNPDADNMHGVRLKWAAPVLLTLSPDYVERVYV", "soluble on expression in E. coli": "not soluble"}, {"sequence": "SVCLFALQIPHDEAQLLALLQQVVQSHPSFKIEVRRRDKLFACNSSAFKKYLALQLWEKYQLKGKLVDPAITVHVEVTKEHFLIISES", "soluble on expression in E. coli": "not soluble"}, {"sequence": "MHHHHHHGSMGMMSRYEELRKELPAQPKVWLITGVAGFIGSNLLETLLKLDQKVVGLDNFATGHQRNLDEVRSLVSEKQWSNFKFIQGDIRNLDDCNNACAGVDYVLHQAALGSVPRSINDPITSNATNIDGFLNMLIAARDAKVQSFTYAASSSTYGDHPGLPKVEDTIGKPLSPYAVTKYVNELYADVFSRCYGFSTIGLRYFNVFGRRQDPNGAYAAVIPKWTSSMIQGDDVYINGDGETSRDFCYIENTVQANLLAATAGLDARNQVYNIAVGGRTSLNQLFFALRDGLAENGVSYHREPVYRDFREGDVRHSLADISKAAKLLGYAPKYDVSAGVALAMPWYIMFLK", "soluble on expression in E. coli": "soluble"}, {"sequence": "MSLEQLNERTVLEYVEKTDLRKSILGDGKLSAQIISEGNVNLIFRICNIENGNSVILKQALPYAWRYPDFKMPVDRQRIEYETLSIESQYAPDYVPKIYFYDNKSHVLVIEDLKELKVMREALIDGEIFPKVAEHIGIFMAKTLFYTSDLYLSSGKKKEMVINFSNPVLCKVQEDLVFTQPYIDHPNNKWSKPLDEIVKKIHQDDKIRGEIFYFKELYMTKSQALIHNDLHTGSIMLNEKTTKVIDPEFAFYGPMAHDIGTYFANLAIAYAAQEAHRVEPGTRNVYREWIAESFEETWNVFQQRFLNAWEKDSNGEWPSESYRENYMLRLLKESAGFGAAEIFRRTIGMAHVHDFWTIKDENIRAKSESIALYIAINWINMWKDVEKIQDLSQVMKNSKPLEGHHHHHH", "soluble on expression in E. coli": "soluble"}, {"sequence": "MILLPSIRLPETAMNTDSPINRVEQVQVDDLACWRIHTAHGEALIAQQGAQLLSYQPHEQPPLVWLSDEAGYRRGQSVRGGVPVCWPWFGPLERNPQEVRGQVEDGLKAPAHGLVRAVDWKIDDIAEEDGDLCVSFRLDAPDGLPGWPHPAALRMLFRFGERLTLRLTSENLGSKPLVLSQALHTYFAVSDSREIAIEGLEGARYIETLENWEERTQHGAVRVKGELDRIYLGLERDLLIKDPRWERSIHLHALDSRSAVVWNPWVDKSRRLSQFADDAWQQMLCIETGRVWDDLMVVAPGRSESFGVQIWSEPLKRP", "soluble on expression in E. coli": "soluble"}, {"sequence": "MKLASPKPFTFEGGDRAVLLLHGFTGNSADVRMLGRFLEKKGYTCHAPIYKGHGVPPEELVHTGPEDWWQDVTEAYQLLKDKGFEKIAVVGLSLGGVFSLKLGYTVPVLGVVPMCAPMYIKSEETMYQGILAYAREYKKREQKSPEQIEQEMLEFQKTPMNTLKALQQLIADVRNNVDMIYVPTFVVQARHDEMINTDSANIIYNGVESTLKDIKWYEDSTHVITLDKQRDELHEDVYNFLEQLDW", "soluble on expression in E. coli": "not soluble"}, {"sequence": "MDITLRTLTENDLPFVKDIYDYYTLHTTVVYFVHCASIDELKNYIPVGDPVYRSFIIETPEGAPCGFCYFARFKPREAFRISVELTLYLKPEFTGRGYGKQAILRLEEIIRQEGFSNIMALISGENEASIRLFEKCGFECCANIRQVAEKFGKKLDLRMYQKIISDNSHLTP", "soluble on expression in E. coli": "not soluble"}, {"sequence": "MSLDLHNDLKSYLSELNTYSHVDKNEIYHSQRAGYMTGGGISIRNGASHTALAQVSLPKFDAGCGGIDIFTGGISFISHDQLIAALKNIASSAQGYAFMLGIETVSPLIASTMKQMETWANAINSLGINSCEVATGLVGSVWPARTAAKQQICRSAKNGGFASSFINARHQCADEGDYAKTMQSMAKDPLYDGMLLEEYNLTWKAVQKHPFLAKKENRKMAEEIMSLTGTLIIRRDKSLVVEPWPSRIYDDSFLPILLEGGTTRVYQCTGGNAKQNCLALEMKELTIPAEQAWKGRIKQALATIQQKILADTPLASEEIDLLSKSRLPLFKIVNVLTAYKREVSPISLYEVAEIVGNEMLIQYLREIIGTVRLAAIQLERGQMYDFDSQKFIEELERVEKVVSRYEERHYQRLEAENQLMLKIETLEQKIASQIILFEGHHHHHH", "soluble on expression in E. coli": "not soluble"}]}]}
